From publication PMC4392246, “Structure of a BAG6 (Bcl-2-associated Athanogene 6)-Ubl4a (Ubiquitin-like Protein 4a) Complex Reveals a Novel Binding Interface That Functions in Tail-anchored Protein Biogenesis*” (The Journal of Biological Chemistry, 2015)

Columns and labels:
[1] = target: T1, full-length Ubl4a (residues 1–157), recombinant (Homo sapiens, UniProt P11441 1-157); experiment: SPR; BAGS domain (residues 1048-1123) immobilised on a CM5 chip by amine coupling; wild-type and mutant Ubl4a as analytes; 298 K; HBS-P (10 mM HEPES, 150 mM NaCl, 0.05% Surfactant P20, pH 7.2); 30 μl/min; two-state reaction model, overall dissociation constant; details: both partners purified
T1 construct: Ubl4a, Homo sapiens, residues 1-157; also called Ubl4a(1–157); full-length Ubl4a wild type; source: recombinant
T1 sequence (looked up): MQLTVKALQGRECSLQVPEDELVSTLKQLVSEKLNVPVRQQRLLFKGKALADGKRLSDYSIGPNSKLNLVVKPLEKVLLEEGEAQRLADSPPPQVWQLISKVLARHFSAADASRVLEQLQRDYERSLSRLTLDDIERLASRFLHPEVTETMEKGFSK

[2] = target: T2, full-length Ubl4a H106E mutant, recombinant (Homo sapiens, UniProt P11441 1-157, H106E); experiment: as above; details: both partners purified
T2 construct: Ubl4a, Homo sapiens, 157 amino acids, with H106E; also called H106E Ubl4a; source: recombinant
T2 sequence (looked up): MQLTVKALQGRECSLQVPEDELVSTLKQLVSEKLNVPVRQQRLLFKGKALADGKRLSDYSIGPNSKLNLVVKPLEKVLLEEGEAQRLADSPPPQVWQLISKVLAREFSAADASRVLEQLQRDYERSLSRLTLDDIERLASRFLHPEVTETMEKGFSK

B1: BAG6 BAGS domain (residues 1048–1123) (domain or fragment, human, UniProt P46379-2 1048-1123, looked up)
chain: MQGEGPQLLLSEAVSRAAKAAGARPLTSPESLSRDLEAPEVQESYRQQLRSDIQKRLQEDPNYSPQRFPNAQRAFA
notes: BAG6, C-terminal BAGS domain, residues 1048-1123; printed length of BAG6 1,126 residues; Removal of GST is told for the crystallised complex; also called BAG6(1048–1123)
With B1 as the binder, how does the Kd [1] read?
The Kd was 2.2 ± 0.5 nM.

What about the Kd [2] of the same binder?
Its Kd is 1600 ± 80 nM.
